Each block holds one binder with its values, some of them ahead of it.
B1: His6-DCB^Δ51–71 (human BIG1 residues 1–228 with a deletion of residues 51–71 inclusive) (domain or fragment, UniProt Q9Y6D6 1-228, looked up)
chain: MYEGKKTKNMFLTRALEKILADKEVKKAHHSQLRKACEVALEEIKAETEKTNFIEADKYFLPFELACQSKCPRIVSTSLDCLQKLIAYGHLTGNAPDSTTPGKKLIDRIIETICGCFQGPQTDEGVQLQIIKALLTAVTSQHIEIHEGTVLQAVRTCYNIYLASKNLINQTTAKATLTQMLNVIFARMENQALQEAKQMEKERHRQH
notes: also called DCB^((Δ51–71) BIG1); source: E. coli BL21-(DE3)-RIPL, co-expressed with GST-Arl1^Q71L, purified (glutathione-Sepharose, TEV release, Superdex 75)

What was measured:
[1] = biological target: the molecule itself; assay: crystal structure; Arl1^Q71L-GTP/Mg2+/DCB^Δ51–71, space group C2, one complex per asymmetric unit, 2.3 Å, molecular replacement
[2] = biological target: the molecule itself; assay: SEC-MALS; MBP-tagged DCB^BIG1 proteins on Superdex-75 HR10/300, 0.5 ml/min, PBS pH 7.5, 150 mM NaCl, 5 mM MgCl2, 0.001% Triton X-100; dimer to monomers
[3] = biological target: B1; assay: pull-down; 2 nM GST-Arl1 loaded with GMP-PNP or GDP mixed with 2 nM His6-tagged protein in 500 μl buffer C (20 mM Tris-HCl, 110 mM KCl, 1 mM DTT, 0.1% Triton X-100) plus 5 mM MgCl2, 4°C 30 min, captured on glutathione-Sepharose; SDS-PAGE, Coomassie; conditions: both partners purified
[4] = biological target: T1, His6-tagged BIG2 N-terminal fragment (1–216) (human, UniProt Q9Y6D5 1-216); assay: as above; conditions: both partners purified
T1 construct: human BIG2, UniProt Q9Y6D5, N-terminal fragment, residues 1-216; also called related region from BIG2; source: E. coli BL21-CodonPlus (DE3)-RIPL, purified (Ni-NTA); not shown: His6, N-terminal, kept
T1 sequence (looked up): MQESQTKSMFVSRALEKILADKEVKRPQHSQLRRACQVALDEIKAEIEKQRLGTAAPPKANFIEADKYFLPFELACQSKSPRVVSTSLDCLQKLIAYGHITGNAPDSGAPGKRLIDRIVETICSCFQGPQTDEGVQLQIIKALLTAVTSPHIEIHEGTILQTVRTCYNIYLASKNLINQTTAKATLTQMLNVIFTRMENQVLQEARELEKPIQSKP

[5] = biological target: T2, His6-DCB^BIG1 (human BIG1 residues 1–228) (human, UniProt Q9Y6D6 1-228); assay: as above; conditions: both partners purified
T2 construct: also called DCB domain; source: E. coli BL21-CodonPlus (DE3)-RIPL, purified (Ni-NTA); not shown: His6, N-terminal, kept
T2 sequence (looked up): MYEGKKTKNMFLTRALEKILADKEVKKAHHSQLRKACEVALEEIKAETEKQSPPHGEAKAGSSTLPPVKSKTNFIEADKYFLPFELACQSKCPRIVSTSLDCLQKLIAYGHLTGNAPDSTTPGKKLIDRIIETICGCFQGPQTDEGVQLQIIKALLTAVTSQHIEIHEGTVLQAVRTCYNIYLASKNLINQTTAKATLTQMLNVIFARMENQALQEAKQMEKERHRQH

Binder: B1
- binding result [1]: binds

B2: MBP-tagged DCB^BIG1 (wild type) (domain or fragment, human, UniProt Q9Y6D6 1-228, looked up)
chain: MYEGKKTKNMFLTRALEKILADKEVKKAHHSQLRKACEVALEEIKAETEKQSPPHGEAKAGSSTLPPVKSKTNFIEADKYFLPFELACQSKCPRIVSTSLDCLQKLIAYGHLTGNAPDSTTPGKKLIDRIIETICGCFQGPQTDEGVQLQIIKALLTAVTSQHIEIHEGTVLQAVRTCYNIYLASKNLINQTTAKATLTQMLNVIFARMENQALQEAKQMEKERHRQH
notes: Expected monomer 69 kDa, measured average 129 kDa; also called MBP-DCB^BIG1; not shown: MBP, N-terminal, kept
- stoichiometry N [2]: 2

- binding result [3]: binds
- binding result [4]: binds
- binding result [5]: binds
B3: GST-Arl1^ΔN14 (human Arl1 residues 15–181), loaded with GMP-PNP or GDP (domain or fragment, UniProt P40616 15-181, looked up)
chain: TREMRILILGLDGAGKTTILYRLQVGEVVTTIPTIGFNVETVTYKNLKFQVWDLGGQTSIRPYWRCYYSNTDAVIYVVDSCDRDRIGISKSELVAMLEEEELRKAILVVFANKQDMEQAMTSSEMANSLGLPALKDRKWQIFKTSATKGTGLDEAMEWLVETLKSRQ
notes: human Arl1, UniProt P40616, residues 15-181 (lacks the N-terminal amphipathic helix, residues 1-14); it was loaded with nucleotide (GMP-PNP or GDP) in vitro; also called Arl1^GTP; GST-Arl1^GMP-PNP; source: E. coli BL21-CodonPlus (DE3)-RIPL, purified (glutathione-Sepharose); not shown: GST, N-terminal, kept

Source: PMC4956616, “Structural Insights into Arl1-Mediated Targeting of the Arf-GEF BIG1 to the trans-Golgi” (Cell Reports, 2016)
